The target in this assay is T1, TnMUC1 in whole cell lysates of DU145 prostate cancer cells (single band of >200 kDa) (UniProt P15941 24-1255, limits assumed, Tn glycoform of MUC1 (aberrant O-glycosylation); sites not stated).
T1 construct: mature; also called mature TnMUC1
The assay is described as follows: Western blot on whole cell lysates of the prostate cancer cell line DU145. (In general: Immunoblotting shows a protein as a band on a membrane.)

T1 sequence (P15941 24-1255 limits assumed): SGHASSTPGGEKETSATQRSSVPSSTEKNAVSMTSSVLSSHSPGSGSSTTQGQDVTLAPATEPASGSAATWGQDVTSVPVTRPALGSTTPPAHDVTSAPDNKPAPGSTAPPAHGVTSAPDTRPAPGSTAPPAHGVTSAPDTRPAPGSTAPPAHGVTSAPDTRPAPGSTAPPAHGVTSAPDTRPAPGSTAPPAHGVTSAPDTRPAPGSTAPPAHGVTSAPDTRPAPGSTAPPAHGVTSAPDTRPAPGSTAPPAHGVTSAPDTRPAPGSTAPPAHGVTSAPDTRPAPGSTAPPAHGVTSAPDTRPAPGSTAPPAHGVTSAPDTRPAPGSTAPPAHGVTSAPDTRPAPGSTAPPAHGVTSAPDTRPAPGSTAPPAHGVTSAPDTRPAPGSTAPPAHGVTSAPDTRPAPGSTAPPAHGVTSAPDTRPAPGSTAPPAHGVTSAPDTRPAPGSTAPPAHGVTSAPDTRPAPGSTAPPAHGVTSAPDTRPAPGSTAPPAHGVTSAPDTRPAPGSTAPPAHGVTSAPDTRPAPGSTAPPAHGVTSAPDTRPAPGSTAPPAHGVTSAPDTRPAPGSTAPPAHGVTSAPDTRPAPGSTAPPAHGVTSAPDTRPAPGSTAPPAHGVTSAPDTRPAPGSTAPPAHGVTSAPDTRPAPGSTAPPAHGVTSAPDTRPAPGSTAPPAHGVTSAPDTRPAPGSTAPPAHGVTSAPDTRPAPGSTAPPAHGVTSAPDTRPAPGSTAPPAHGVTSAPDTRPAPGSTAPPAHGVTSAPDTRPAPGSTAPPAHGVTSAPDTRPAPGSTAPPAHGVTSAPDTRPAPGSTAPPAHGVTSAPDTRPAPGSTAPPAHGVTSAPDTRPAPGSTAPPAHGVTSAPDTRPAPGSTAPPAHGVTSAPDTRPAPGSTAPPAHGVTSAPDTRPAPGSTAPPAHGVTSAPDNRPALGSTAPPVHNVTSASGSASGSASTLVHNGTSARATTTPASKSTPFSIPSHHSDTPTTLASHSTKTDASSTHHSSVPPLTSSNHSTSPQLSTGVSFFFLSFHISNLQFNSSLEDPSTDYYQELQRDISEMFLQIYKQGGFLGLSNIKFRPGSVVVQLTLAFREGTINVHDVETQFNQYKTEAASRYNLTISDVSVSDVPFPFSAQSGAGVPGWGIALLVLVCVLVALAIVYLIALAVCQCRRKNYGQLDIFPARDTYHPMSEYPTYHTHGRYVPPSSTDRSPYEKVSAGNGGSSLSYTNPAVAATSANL

B1: Anti-TnMUC1 murine monoclonal antibody clone 5E5 (antibody, V domains shown)
VH: QVQLQQSDAELVKPGSSVKISCKASGYTFTDHAIHWVKQKPEQGLEWIGHFSPGNTDIKYNDKFKGKATLTVDRSSSTAYMQLNSLTSEDSAVYFCKTSTFFFDYWGQGTTLTVSS
VL: ELVMTQSPSSLTVTAGEKVTMICKSSQSLLNSGDQKNYLTWYQQKPGQPPKLLIFWASTRESGVPDRFTGSGSGTDFTLTISSVQAEDLAVYYCQNDYSYPLTFGAGTKLELK
notes: also called 5E5 mAb; mAb 5E5
On to B1, for which the binding result was “binds”.

The values are drawn from patent US20210338733A1 (University of Pennsylvania, published 2021).
